The values that follow come from the supplement of paper PMC11908140.

B1: library; numbered along this chain (parent)
chain: MRKPRAAVGSGHRKQAASQEGRQKHAKNNSQAKPSACDGLARQPEEVVLQASVSSYHLFRDVAEVTAFRGSLLSWYDQEKRDLPWRRRAEDEMDLDRRAYAVWVSEVMLQQTQVATVINYYTGWMQKWPTLQDLASASLEEVNQLWAGLGYYSRGRRLQEGARKVVEELGGHMPRTAETLQQLLPGVGRYTAGAIASIAFGQATGVVDGNVARVLCRVRAIGADPSSTLVSQQLWGLAQQLVDPARPGDFNQAAMELGATVCTPQRPLCSQCPVESLCRARQRVEQEQLLASGSLSGSPDVEECAPNTGQCHLCLPPSEPWDQTLGVVNFPRKASRKPPREESSATCVLEQPGALGAQILLVQRPNSGLLAGLWEFPSVTWEPSEQLQRKALLQELQRWAGPLPATHLRHLGEVVHTFSHIKLTYQVYGLALEGQTPVTTVPPGARWLTQEEFHTAAVSTAMKKVFRVYQGQQPGTCMGSKRSQVSSPCSRKKPRMGQQVLDNFFRSHISTDAHSLNSAAQ

In the data set the parent is B1. The data set can be described thus: 8OG:A repair function score (normalized; synonymous = 0, nonsense = -1) (normalized log-likelihood score); higher = more repair activity (WT-like). The following applies: with 8OG:A DNA repair reporter (GFP) in HEK-293 MUTYH KO cells. The procedure:
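Saturation mutagenesis (NNN codon scan) of the MUTYH cDNA (521-aa nuclear isoform NM_001048174.1 / NP_001041639), stably expressed under doxycycline induction in HEK-293 MUTYH knockout cells. Cells were co-transfected with an 8OG:A-bearing GFP repair reporter plus mCherry and sorted 72 h later into GFP+ and GFP− bins, three replicates per tile. The Rosace log2 enrichment (GFP+ vs GFP−) was converted per tile to a normalized function score with synonymous variants centered at 0 and nonsense variants (codons 1-471) at -1; low-abundance variants were removed.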
Take A254K: the “8OG:A repair function score” value is -0.725.
As for T440Y, the “8OG:A repair function score” value is 0.157.
On to L430T, for which the “8OG:A repair function score” value is -0.477.
With N143Q, the “8OG:A repair function score” value is -0.222.
To Y152E belongs -1.16; to G434I, -0.0439; to G434N, -0.392.
As for D512V, the figure is 0.00239.
To D512Q belongs -0.02; to P338W, 0.053.
Turning to R495C, the “8OG:A repair function score” value was -0.00275.
As for R495T, the figure is 0.0177; as for R340C, -0.18; as for P267L, -1.03.
As for K80M, the figure is -0.162; as for A238Y, -0.881; as for S74T, -0.0089.
Regarding T176C, the “8OG:A repair function score” value was -0.0512.
Consider T176P, for which the “8OG:A repair function score” value is -0.429.
As for H514A, the figure is -0.021; as for R446E, -0.312; as for Q386A, 0.0488.
To Q386R belongs 0.0701; to G353W, -0.099.
To E46N belongs -0.0764; to H416A, -0.0865; to P443C, -9.64e-05.
For the variant V102T, the “8OG:A repair function score” value is -0.0943.
Take I359M: the “8OG:A repair function score” value was -0.00943.
As for Q50G, the figure is -0.0798; as for Q182V, -0.022.
R364A: the “8OG:A repair function score” value is -0.285.
With R364S, the “8OG:A repair function score” value is -0.2.
As for G155M, the “8OG:A repair function score” value is -0.629.
Q126W: the “8OG:A repair function score” value is -0.256.
On to S515N, for which the “8OG:A repair function score” value came out at 0.0152.
As for Y469T, the “8OG:A repair function score” value was -0.181.
To S294L belongs -0.0244.
Consider S294Y, for which the “8OG:A repair function score” value was -0.0109.
As for L516D, the figure is -0.0107.
With L393E, the “8OG:A repair function score” value is -0.395.
With T191W, the “8OG:A repair function score” value is -1.2.
In the case of P339L, the “8OG:A repair function score” value was -0.113.
To L58P belongs -0.622; to Q388P, 0.145.
To L95G belongs 0.00593; to G205E, -0.592; to R86D, -1.26.
Turning to R86L, the “8OG:A repair function score” value is -0.926.
In the case of R86S, the “8OG:A repair function score” value is -1.03.
R87W: the “8OG:A repair function score” value was -0.0564.
To G148H belongs -0.166.
Regarding G148Q, the “8OG:A repair function score” value is -0.44.
To N119R belongs 0.0743; to Q435A, -0.0344.
With G222M, the “8OG:A repair function score” value was -0.381.
Regarding L373K, the “8OG:A repair function score” value is -0.314.
As for G497K, the “8OG:A repair function score” value came out at 0.0129.
Regarding N366Q, the “8OG:A repair function score” value is 0.152.
For the variant N366D, the “8OG:A repair function score” value is -0.00541.
Consider A457H, for which the “8OG:A repair function score” value is -0.398.
In the case of L392E, the “8OG:A repair function score” value was -1.11.
Take L392H: the “8OG:A repair function score” value is -0.963.
To L289C belongs -0.0659; to R213Y, -0.997.
To G193V belongs -0.346.
For the variant S54I, the “8OG:A repair function score” value was -0.00479.
As for S54W, the figure is -0.423.
As for S54C, the figure is 0.00525; as for S54A, 0.00533.
To S486D belongs 0.00623.
Regarding S486V, the “8OG:A repair function score” value is -0.00598.
As for T417C, the figure is -0.188; as for T112M, -1.06; as for R219V, -0.809.
In the case of E433L, the “8OG:A repair function score” value is -0.0355.
As for E433S, the “8OG:A repair function score” value was determined as 0.0139.
As for P442L, the figure is -0.12; as for Q43G, -0.0204.
P402R: the “8OG:A repair function score” value is -0.0808.
As for I421C, the figure is -0.3; as for L139I, 0.139.
As for A6I, the figure is -0.177; as for S378Q, 0.0825.
